For this test, the target named is recombinant YBX1 with a C-terminal 6×His tag (UniProt P67809 1-324). Briefly: BLI. A general note: Biolayer interferometry detects binding as a change in optical thickness at a sensor tip.

Kd data for one molecule are collected here from paper PMC8924000 (2022).

Chain of recombinant YBX1 with a C-terminal 6×His tag (P67809 whole entry): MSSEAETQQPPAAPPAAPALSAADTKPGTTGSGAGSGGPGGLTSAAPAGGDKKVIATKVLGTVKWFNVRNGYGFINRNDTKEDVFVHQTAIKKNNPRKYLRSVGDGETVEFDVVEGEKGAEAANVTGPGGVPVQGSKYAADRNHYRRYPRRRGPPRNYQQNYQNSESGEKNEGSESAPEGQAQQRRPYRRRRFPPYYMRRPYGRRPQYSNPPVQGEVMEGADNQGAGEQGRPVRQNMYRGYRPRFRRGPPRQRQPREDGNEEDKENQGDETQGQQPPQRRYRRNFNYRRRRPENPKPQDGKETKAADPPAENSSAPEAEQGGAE

B1: recombinant GSDME with a C-terminal 6×His tag (natural protein)
chain: MFAKATRNFLREVDADGDLIAVSNLNDSDKLQLLSLVTKKKRFWCWQRPKYQFLSLTLGDVLIEDQFPSPVVVESDFVKYEGKFANHVSGTLETALGKVKLNLGGSSRVESQSSFGTLRKQEVDLQQLIRDSAERTINLRNPVLQQVLEGRNEVLCVLTQKITTMQKCVISEHMQVEEKCGGIVGIQTKTVQVSATEDGNVTKDSNVVLEIPAATTIAYGVIELYVKLDGQFEFCLLRGKQGGFENKKRIDSVYLDPLVFREFAFIDMPDAAHGISSQDGPLSVLKQATLLLERNFHPFAELPEPQQTALSDIFQAVLFDDELLMVLEPVCDDLVSGLSPTVAVLGELKPRQQQDLVAFLQLVGCSLQGGCPGPEDAGSKQLFMTAYFLVSALAEMPDSAAALLGTCCKLQIIPTLCHLLRALSDDGVSDLEDPTLTPLKDTERFGIVQRLFASADISLERLKSSVKAVILKDSKVFPLLLCITLNGLCALGREHS
By Kd is commonly meant a measure of binding affinity in units of concentration. For B1, the Kd stood at 0.0248 nM.
